The source of these data is patent publication US20110265202A1.

Test [1] concerns the target PrpS1-GFP fusion protein expressed in Arabidopsis thaliana pollen (line BG16) (Papaver rhoeas). As to the kind of experiment: cell-based or functional assay.
The target in test [2] is PrpS8 (Papaver rhoeas pollen S8 protein) on P. rhoeas pollen (Papaver rhoeas). As to the kind of experiment: cell-based or functional assay.

Consider “recombinant Papaver rhoeas pistil S1 protein (PrsS1) (ligand)”, for which, in test [1], the pollen germination of BG16 Arabidopsis pollen, in vitro SI assay was determined as 50 % reduction; the pollen viability (Evans blue) at t=2 h, BG16+PrsS1 against WT+S1 pollen turned out to be 35 times lower; the pollen viability (Evans blue) at t=4 h, BG16+PrsS1 against WT+S1 pollen was 53 times lower; the pollen viability (Evans blue) at t>8 h, BG16+PrsS1 against WT+S1 pollen was 45 times lower.

For the substance “recombinant Papaver rhoeas pistil S8 protein (PrsS8) (ligand)”, in test [2], the % germination of P. rhoeas S1S8 pollen with both PrsS1 and PrsS8 added (29.7% with S1 alone) was found to be 1%.
